Experiments:
Assay type in all cases: cell-based, human
P-ERK1/2(T202/Y204) = assay: ERK MAP kinase activation by sMICA plus crosslinking anti-His tag Ab (immunoblot); conditions: for phosphorylation of ERK1/2: desensitized EpCAM+CD45− ovarian cancer (OT63), HTB-78, MCF-7-TF cells, sMICA 1 μg/ml crosslinked by anti-His tag Ab, or EGF 100 ng/ml
From the text: (§1) NKG2D was immunoprecipitated from standard NP-40 buffer lysates of FACSAria-sorted EpCAM^+CD45^− cancer cells (˜5×10^6 per lane), tumor lines (˜5×10^7 cells; 2×10^7 cells with BT-20), and transfectants (5×10^6 cells) using mAb 5C6 immobilized on AminoLink Plus Coupling Resin (Pierce). DAP10 was immunoprecipitated using rabbit polyclonal antibodies (FL-93; Santa Cruz Biotechnology). Immunoblots were probed with polyclonal antibodies to NKG2D or DAP10 (N-20 and N-17; Santa Cruz Biotechnology), or Grb2 (Cell Signaling Technology) and developed using secondary reagents and Supersignal West Dura Extended Duration Substrate (Pierce). Immunoprecipitation and immunoblot detection of mouse NKG2D utilized a rat mAb (clone 191004; R&D Systems) and goat polyclonal reagent (H-15; Santa Cruz Biotechnology), respectively. For P-AKT induction, cancer cells and tumor lines (2×10^6 cells per experimental condition) cultured in 6-well plates were desensitized for 16 h and 4-24 h, respectively, in serum-free RPMI at 37° C. before exposure in 0.5 ml RPMI to insulin (5 μg/ml; 35 min at 37° C.), mAb 1D11 (purified with MabTrap Kit; GE Healthcare Life Sciences) or mAb 5C6 F(ab′)2 (produced with Pierce F(ab′)2 preparation kit) (each 5 μg/ml; 30 min at 4° C.). For crosslinking, washed cells in 0.2 ml RPMI were exposed to goat anti-mouse F(ab′)2 (20 μg/ml; 5 min at 37° C.; Jackson ImmunoResearch). Wortmannin (100 nM; Sigma) was applied 2 h before stimulations. Reactions were terminated on ice by addition of 1 ml sodium orthovanadate (Na3VO4, 2 mM in cold PBS; Calbiochem) and cells resuspended in NP-40 lysis buffer with protease inhibitor cocktail (Roche) and Na3VO4. Cleared supernatants were subjected to SDS-PAGE (4-12% gradient NuPAGE gels; Invitrogen) and proteins electroblotted onto PVDF membranes (Immobilon-P; Millipore), which were probed with rabbit anti-human phospho-AKT(S473) (clone 193H12) or pan-AKT (clone C67E7), secondary HRP-conjugated anti-rabbit IgG (all from Cell Signaling Technology), and chemiluminescent reagent. […] Inhibitors wortmannin (100 nM) and rapamycin (50 nM; LC Laboratories) were added after 2 h of desensitization. Detached cells were sequentially washed and exposed to 1D11 mAb and crosslinking Ab in 0.5 and 0.2 ml cold HBSS, respectively, and processed as above. […] Phosphoproteins and protein controls were detected using rabbit polyclonal antibodies (to P-mTOR, P-S6K1, and P-4E-BP1), mAbs (clones 7C10, 236B4, and 53H11), and anti-rabbit IgG-HRP (all from Cell Signaling Technology). MAPKs were detected with cells grown to semi-confluence in 6-well plates and desensitized for 24 h. […]
(§2) As determined so far, signaling pathway activation by NKG2D-DAP10 in tumor cells was similar to lymphocytes. […]

P-JNK1/2(T183/Y185) = assay: JNK MAP kinase activation by sMICA plus crosslinking anti-His tag Ab (immunoblot); conditions: for phosphorylation of JNK1/2: desensitized EpCAM+CD45− ovarian cancer (OT63), HTB-78, MCF-7-TF cells, sMICA 1 μg/ml crosslinked by anti-His tag Ab, or EGF 100 ng/ml
From the text: as §1, §2

P-AKT(S473) [1] = assay: P-AKT induction after NKG2D crosslinking in freshly isolated cancer cells (immunoblot); conditions: sorted EpCAM+CD45− breast, ovarian, prostate cancer cells after serum deprivation; crosslinked Ab 5 μg/ml or insulin 5 μg/ml
From the text: (§3) NKG2D was immunoprecipitated from standard NP-40 buffer lysates of FACSAria-sorted EpCAM^+CD45^− cancer cells (˜5×10^6 per lane), tumor lines (˜5×10^7 cells; 2×10^7 cells with BT-20), and transfectants (5×10^6 cells) using mAb 5C6 immobilized on AminoLink Plus Coupling Resin (Pierce). DAP10 was immunoprecipitated using rabbit polyclonal antibodies (FL-93; Santa Cruz Biotechnology). Immunoblots were probed with polyclonal antibodies to NKG2D or DAP10 (N-20 and N-17; Santa Cruz Biotechnology), or Grb2 (Cell Signaling Technology) and developed using secondary reagents and Supersignal West Dura Extended Duration Substrate (Pierce). Immunoprecipitation and immunoblot detection of mouse NKG2D utilized a rat mAb (clone 191004; R&D Systems) and goat polyclonal reagent (H-15; Santa Cruz Biotechnology), respectively. […] Phosphoproteins and protein controls were detected using rabbit polyclonal antibodies (to P-mTOR, P-S6K1, and P-4E-BP1), mAbs (clones 7C10, 236B4, and 53H11), and anti-rabbit IgG-HRP (all from Cell Signaling Technology). MAPKs were detected with cells grown to semi-confluence in 6-well plates and desensitized for 24 h. […]

P-AKT(S473) [2] = assay: P-AKT induction after NKG2D crosslinking in tumor lines (immunoblot); conditions: desensitized MCF-7, BT-20, MDA-MB-453, HTB-78, DLD-1, AGS cells
From the text: as §3

[3] = test system: P-mTOR(S2448), P-S6K1(T389), and P-4E-BP1(T37/46); assay: Activation of mTOR-S6K1/4E-BP1 after NKG2D crosslinking (immunoblot); conditions: HTB-78 and MCF-7-TF cells after starvation
Protocol: Detached cells were sequentially washed and exposed to 1D11 mAb and crosslinking Ab in 0.5 and 0.2 ml cold HBSS, respectively, and processed as above. Sample electrophoresis was in 3-8% (mTOR) and 4-12% (4E-BP1) gradient NuPAGE gels. Phosphoproteins and protein controls were detected using rabbit polyclonal antibodies (to P-mTOR, P-S6K1, and P-4E-BP1), mAbs (clones 7C10, 236B4, and 53H11), and anti-rabbit IgG-HRP (all from Cell Signaling Technology).

surface NKG2D = assay: Flow cytometry of tumor lines for surface NKG2D; conditions: breast, colon, gastric, ovarian, prostate tumor lines after exposure
Protocol: Tumor cell lines BT-20, MDA-MB-453, HTB-78, AGS, MDA-MB-231, DLD-1, PC3, and A375 were grown in RPMI 1640, and MCF-7 in Eagle's minimal essential medium (EMEM) plus insulin (0.01 mg/ml; Sigma), both media supplemented with 10% FBS. The mouse TEC and PAM 212 lines were from the ATCC, and […] was provided by Dr. Norm Greenberg (FHCRC). Abs for immunohistochemistry and flow cytometry of cell surface markers were mAb together with HRP-conjugated secondary reagents and mAb-fluorochrome conjugates, respectively, to NKG2D (clone 1D11, -APC; 3), MICA/MICB (clone 6D4, -PE; 7), CD45 (clone 2D1, -APC-Cy7), CD3 (clone UCHT1) (all from BD Pharmingen), and EpCAM (clone 9C4, -Alexa Fluor 488; BioLegend). Binding of anti-ULBP1-5 antibodies (mAbs 3F1, 6F6, 4F9, 6E6, and 6D10; 14) was visualized with a PE-conjugated secondary reagent. Cancer cell viability was assessed using a LIVE/DEAD Fixable Violet Dead Cell Stain kit (Invitrogen). Immunohistochemistry stainings of tissue cryosections employed the Envision System (Dako) protocol. Cells were examined for mAb surface stainings using a BD LSR II flow cytometer and FlowJo software (Tree Star).

MCF-7-TF cells [4] = assay: Cell cycle analysis by propidium iodide staining; conditions: MCF-7-TF cells plated 24 h at near confluence without growth factors; Abs each 10 μg/ml
Protocol: DNA contents were determined with 70% EtOH-permeabilized and fixed cells treated with PI/RNase staining buffer (BD Pharmingen). Prior to analysis, cells were plated for 24 h in the presence or absence of each 10 μg/ml anti-MIC and -ULBP3 and -ULBP4 mAb or control Ig. Flow cytometry data were analysed using FlowJo cell cycle software with quantitative analysis based on Dean-Jett-Fox model curve fitting. Cellular ATP was determined using the ATPlite luminescence assay system (PerkinElmer). Real-time oxygen consumption and extracellular acidification rates were measured employing the Seahorse Bioscience Extracellular Flux Analyzer XF24 with cells (3×10^4) seeded in custom 24-well plates and grown overnight (34). Metabolic rates were calculated from multiple measurements in buffer-free medium within one h at 37° C. Differences in cell growth rates were accounted for by using fluorescence emission values of Hoechst stainings to calculate normalization factors for cell number corrections.
The inventors thus explored effects on cellular functions resulting from NKG2D stimulation using the MCF-7 mock-transfected control and MCF-7-TF model cells. Cells were plated at near confluence in the absence of growth factors with or without the relevant anti-MIC and anti-ULBP1/3/4 Abs or control Ig 24 h before assay time (FIG. 7). […]

[5] = test system: AKT(S473) phosphorylation; assay: Inducible AKT phosphorylation in siRNA-transduced MCF-7 cells; conditions: lentiviral siRNA transduction
From the text: as §3

NKG2D = NKG2D protein depletion by siRNA (immunoblot); conditions: CD8 T cells, 2×10^6 per lane
From the text: as §3

MCF-7-TF cells [6] = assay: EMT-like phenotype of MCF-7-TF cells (phase contrast, IF microscopy, immunoblot)
From the text: Diagnostic of EMT, among other criteria, are reduced expression of E-cadherin and induction of N-cadherin (Polyak and Weinberg, 2009; Thiery et al., 2009; Yang and Weinberg, 2008). […] Among key transcription factors is SNAI1 and Twist, which were induced in MCF-7-TF as well as in MCF-10A-TF and SUM149PT-TF cells (FIG. 8C). MCF-7-TF cells also scored increased migratory and invasive activities in Matrigel assays (FIG. 8D). Both ERK- and AKT-initiated signaling have been implicated in cancer EMT (Thiery et al., 2009).

MCF-7-TF cells [7] = assay: Migration through porous filters and invasion in Matrigel assay
Protocol: MCF-7 cells were evaluated for stimulation of cellular migration through porous filters and for invasion of reconstituted basement membranes in MATRIGEL assays (FIG. 10).

MCF-7 cells = assay: Expansion of siRNA-transduced MCF-7 cells
DAP10 = DAP10 protein depletion by siRNA (immunoblot); conditions: CD8 T cells, 2×10^6 per lane
From the text: as §3

[8] = U0126 10 μM, SP600125 100 μM, wortmannin 200 nM, added 30 min before stimulation
[9] = tumor cell exposure to sMICA or anti-His tag Ab alone, no crosslinking

N#CC(=C(/N)Sc1ccccc1N)/C(C#N)=C(\N)Sc1ccccc1N [U0126, reference compound]
effect of inhibitor on appearance of P-ERK1/2 (P-ERK1/2(T202/Y204); [8]): diminished
effect of inhibitor on appearance of P-JNK1/2 (P-JNK1/2(T183/Y185); [8]): not vice versa

EGF: rhEGF, positive control activation of MAP kinases [reference compound]
phosphorylation of ERK1/2 (P-ERK1/2(T202/Y204)): positive control activation
phosphorylation of JNK1/2 (P-JNK1/2(T183/Y185)): positive control activation

insulin: positive control activation of AKT, 5 μg/ml
induction of Phospho-AKT (P-AKT) (P-AKT(S473) [1]): positive control activation except for the unresponsive prostate cancer cells
induction of P-AKT (P-AKT(S473) [2]): positive control activation
induction of P-mTOR(S2448), P-S6K1(T389), P-4E-BP1(T37/46) [3]: positive control activation

IL-15: cytokine which induces T cell NKG2D
surface NKG2D expression (surface NKG2D): No increased expression

B1: RNAi targeting of NKG2D: lentivirally expressed hairpin siRNA targeting NKG2D (KLRK1) mRNA positions 690-710; oligonucleotides SEQ ID NO:19 and 20 (nucleic acid, listed as Homo sapiens)
chain 1: CTAGACCCAACCTACTAACAATAATTTCAAGAGAATTATTGTTAGTAGGTTGGGTTTTTGAT
chain 2: ATCAAAAAACCCAACCTACTAACAATAATTCTCTTGAAATTATTGTTAGTAGGTTGGGT
modifications: the letters are possibly those of the target site
effect on enlarged proportions of cells in S and G2 phase (MCF-7-TF cells [4]): reversed
inducible AKT(S473) phosphorylation [5]: Absence of inducible AKT(S473) phosphorylation
depletion of NKG2D (NKG2D): depletion
changes in epithelial and mesenchymal marker proteins (E-cadherin, N-cadherin) (MCF-7-TF cells [6]; IF microscopy and immunoblot): reversed
cell morphology (MCF-7-TF cells [6]; phase contrast microscopy): restored the parental cell morphology
migratory and invasive activities (MCF-7-TF cells [7]): suppressed

B2: DAP10 siRNA: lentivirally expressed hairpin siRNA targeting DAP10 (HCST) mRNA positions 165-193; oligonucleotides SEQ ID NO:21 and 22 (nucleic acid, listed as Homo sapiens)
chain 1: CTAGAAGCTCAGACGACTCCAGGAGAGAGATCATTCAAGAGATGATCTCTCTCCTGGAGTCGTCTGAGCTTTTTTTGAT
chain 2: ATCAAAAAAAGCTCAGACGACTCCAGGAGAGAGATCATCTCTTGAATGATCTCTCTCCTGGAGTCGCTGAGCTT
modifications: the letters are possibly those of the target site
inducible AKT(S473) phosphorylation [5]: Absence of inducible AKT(S473) phosphorylation
proliferation of transduced cells (MCF-7 cells): proliferated poorly
depletion of DAP10 (DAP10): depletion

B3: sMICA: recombinant soluble MICA, His-tagged NKG2D ligand purified from transfected 293T cells (protein)
chain: EPHSLRYNLTVLSWDGSVQSGFLTEVHLDGQPFLRCDRQKCRAKPQGQWAEDVLGNKTWDRETRDLTGNGKDLRMTLAHIKDQKEGLHSLQEIRVCEIHEDNSTRSSQHFYYDGELFLSQNLETKEWTMPQSSRAQTLAMNVRNFLKEDAMKTKTHYHAMHADCLQELRRYLKSGVVLRRTVPPMVNVTRSEASEGNITVTCRASGFYPWNITLSWRQDGVSLSHDTQQWGDVLPDGNGTYQTWVATRICQGEEQRFTCYMEHSGNHSTHPVPSGKVLVLQSHW
modifications: left off: small tags and cut ends
notes: recombinant soluble MICA, His-tagged NKG2D ligand purified from transfected 293T cells
phosphorylation of ERK1/2 (P-ERK1/2(T202/Y204)): resulted in phosphorylation
phosphorylation of ERK1/2, reagent alone (P-ERK1/2(T202/Y204); [9]): no effect
phosphorylation of JNK1/2 (P-JNK1/2(T183/Y185)): resulted in phosphorylation
phosphorylation of JNK1/2, reagent alone (P-JNK1/2(T183/Y185); [9]): no effect

— patent publication US10040853B2, “Methods and compositions involving NKG2D inhibitors and cancer” (Fred Hutchinson Cancer Research Center, priority 2011, dated 2018)
